The text below walks through data of US20260159606A1 (VIB VZW, published 2026).

Test [1] addresses T1, hPIV-3 hemagglutinin-neuraminidase (HN), expressed on transfected HEK293T cells (human parainfluenza virus 3 (hPIV-3), UniProt P08492 1-572).
T1 construct: also called hPIV-3 HN; HN3
T1 chain: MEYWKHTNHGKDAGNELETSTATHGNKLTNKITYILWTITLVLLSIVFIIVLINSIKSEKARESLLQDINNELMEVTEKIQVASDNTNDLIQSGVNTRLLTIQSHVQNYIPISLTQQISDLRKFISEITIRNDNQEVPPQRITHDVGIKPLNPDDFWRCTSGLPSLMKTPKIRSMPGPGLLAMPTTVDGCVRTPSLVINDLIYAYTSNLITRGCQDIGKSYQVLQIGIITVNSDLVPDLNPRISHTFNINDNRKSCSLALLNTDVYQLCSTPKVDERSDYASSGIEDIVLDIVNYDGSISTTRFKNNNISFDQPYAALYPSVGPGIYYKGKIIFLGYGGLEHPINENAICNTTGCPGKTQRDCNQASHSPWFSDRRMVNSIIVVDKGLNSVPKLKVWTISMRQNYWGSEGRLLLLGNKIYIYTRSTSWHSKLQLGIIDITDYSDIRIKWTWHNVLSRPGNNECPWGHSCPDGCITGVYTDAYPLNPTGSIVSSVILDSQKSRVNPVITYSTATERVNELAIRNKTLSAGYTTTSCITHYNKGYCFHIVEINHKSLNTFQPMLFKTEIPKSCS
Description: flow cytometry on transfected HEK293T cells, 10 µg/ml (FIG. 16A).

In test [2] the target is T2, D275N- and R277T-mutant hPIV-3 HN, expressed on transfected HEK293T cells (human parainfluenza virus 3 (hPIV-3), UniProt P08492 1-572).
T2 construct: also called mut HN3
T2 chain: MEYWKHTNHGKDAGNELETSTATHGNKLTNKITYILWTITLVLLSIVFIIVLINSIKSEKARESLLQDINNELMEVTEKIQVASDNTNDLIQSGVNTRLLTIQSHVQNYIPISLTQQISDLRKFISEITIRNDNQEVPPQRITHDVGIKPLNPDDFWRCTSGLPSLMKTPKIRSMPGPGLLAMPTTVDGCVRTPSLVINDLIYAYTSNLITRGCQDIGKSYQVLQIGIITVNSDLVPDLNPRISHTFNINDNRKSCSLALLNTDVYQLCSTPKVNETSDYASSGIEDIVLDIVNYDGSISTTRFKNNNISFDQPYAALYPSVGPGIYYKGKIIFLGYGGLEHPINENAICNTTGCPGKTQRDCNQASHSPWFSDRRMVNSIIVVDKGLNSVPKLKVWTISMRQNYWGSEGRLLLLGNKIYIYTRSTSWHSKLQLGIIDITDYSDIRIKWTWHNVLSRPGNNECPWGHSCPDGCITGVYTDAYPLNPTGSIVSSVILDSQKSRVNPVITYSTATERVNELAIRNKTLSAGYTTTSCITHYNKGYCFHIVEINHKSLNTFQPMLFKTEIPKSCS
Description: flow cytometry on transfected HEK293T cells, VHH 1 or 0.1 µg/ml (FIG. 11C).

For test [3], the target named is HN of hPIV-3-GFP virus (on virions and on hPIV-3-infected cells) (human parainfluenza virus 3 (hPIV-3), UniProt P08492 1-572). Description: cell-based or functional assay.
Test [4] has as its target T3, HN of hPIV-1-GFP virus (on virions and on hPIV-1-infected cells) (human parainfluenza virus 1 (hPIV-1), UniProt P16071 1-575).
T3 sequence: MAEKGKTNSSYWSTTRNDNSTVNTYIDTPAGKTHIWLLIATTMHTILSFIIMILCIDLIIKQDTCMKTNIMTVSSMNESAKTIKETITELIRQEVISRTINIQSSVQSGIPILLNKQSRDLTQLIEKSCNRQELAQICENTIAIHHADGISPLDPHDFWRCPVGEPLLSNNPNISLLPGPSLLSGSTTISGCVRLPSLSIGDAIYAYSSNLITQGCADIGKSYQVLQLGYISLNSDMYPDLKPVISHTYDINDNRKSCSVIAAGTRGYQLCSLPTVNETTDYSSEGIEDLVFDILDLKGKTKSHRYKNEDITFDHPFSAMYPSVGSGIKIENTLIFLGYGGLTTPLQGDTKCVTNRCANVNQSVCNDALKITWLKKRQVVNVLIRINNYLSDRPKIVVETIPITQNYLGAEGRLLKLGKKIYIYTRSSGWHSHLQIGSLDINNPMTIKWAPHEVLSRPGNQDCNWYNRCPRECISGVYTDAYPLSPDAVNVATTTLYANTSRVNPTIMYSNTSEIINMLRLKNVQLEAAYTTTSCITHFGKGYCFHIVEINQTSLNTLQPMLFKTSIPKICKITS
Description: cell-based or functional assay.

The target of test [5] is T1, hPIV-3 hemagglutinin-neuraminidase ….
Test [6] has as its target T4, hPIV-1 hemagglutinin-neuraminidase (HN), expressed on transfected HEK293T cells (human parainfluenza virus 1 (hPIV-1), UniProt P16071 1-575).
T4 construct: whole, on cells; also called hPIV-1 HN; HN1
T4 sequence: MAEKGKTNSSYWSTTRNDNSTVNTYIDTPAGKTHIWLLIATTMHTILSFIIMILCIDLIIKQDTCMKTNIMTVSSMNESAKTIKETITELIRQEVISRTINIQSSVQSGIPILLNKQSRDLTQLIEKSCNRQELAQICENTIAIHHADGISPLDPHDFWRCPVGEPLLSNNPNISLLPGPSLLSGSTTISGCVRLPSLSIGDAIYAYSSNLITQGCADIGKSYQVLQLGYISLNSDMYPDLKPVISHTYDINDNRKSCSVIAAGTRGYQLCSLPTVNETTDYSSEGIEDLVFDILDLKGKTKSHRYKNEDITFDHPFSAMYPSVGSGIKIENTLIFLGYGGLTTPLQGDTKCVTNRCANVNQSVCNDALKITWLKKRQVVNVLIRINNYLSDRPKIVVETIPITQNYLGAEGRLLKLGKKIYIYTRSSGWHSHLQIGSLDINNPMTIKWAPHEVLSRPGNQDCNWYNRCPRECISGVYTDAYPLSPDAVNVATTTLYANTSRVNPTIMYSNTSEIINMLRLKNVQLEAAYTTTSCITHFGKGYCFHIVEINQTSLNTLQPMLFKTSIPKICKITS
Description: flow cytometry on transfected HEK293T cells. Background: In flow cytometry, cells or beads pass a laser one at a time.

For test [7], the target named is T5, hPIV-3 fusion protein (F), expressed on transfected HEK293T cells (human parainfluenza virus 3 (hPIV-3), UniProt P06828 19-539).
T5 construct: whole, on cells
Description: flow cytometry on transfected HEK293T cells (FIG. 4).

In test [8] the target is T2, D275N- and R277T-mutant hPIV-3 HN, …. Description: flow cytometry on transfected HEK293T cells (FIG. 11C).

B1: bivalent VHH A2R3-59-59 (VHH)
chain: QVQLQESGGGLVQPGGSLRLSCAASGSISGINGMGWYRQAPGKQRELVAAITSGGSTNYADSVKGRFTISRDNAKNTVDLQMNSLQPEDTAVYYCYVSSTPSWGLYDDYWGQGTQVTVSSGGGGSGGGGSGGGGSQVQLQESGGGLVQPGGSLRLSCAASGSISGINGMGWYRQAPGKQRELVAAITSGGSTNYADSVKGRFTISRDNAKNTVDLQMNSLQPEDTAVYYCYVSSTPSWGLYDDYWGQGTQVTVSS
notes: also called bivalent A2R3-59
Consider B1, for which the binding result in test [1] and in test [2] was “binds” each time. The “fold higher potency of hPIV-3-GFP neutralization than the monovalent counterpart” value in test [3] was ~8 fold. The “IC50 of neutralization of hPIV-1-GFP on Vero (E6) TMPRSS2 cells” value in test [4] turned out to be 2.9 nM.

B2: VHH A2R3-55 (VHH)
VHH: QVQLQESGGGLVQAGGSLRLSCAASGSIDRIDAMGWSRQAPGKQRELVATITTGGITNYAVSVKGRFTISRDNAKNTVYLQMNSLKPEDTAVYYCNAQGAPSWGLYEDYWGQGTQVTVSS
Take B2: in test [5], the “fold reduction of binding at 500 µg/ml of zanamivir” value is ~5 fold. The binding result in test [6] was “no binding”; in test [7] it was “no binding (tested: 1 µg/ml)”; in test [8], “no binding (tested: 1 or 0.1 µg/ml)”.
